Numbering of substitutions follows the chain as printed. Numbers in names are those of the source.
B1: YnfK I184Y (enzyme, E. coli (strain MG1655), UniProt P0A6E9 1-231, looked up)
chain: MLKRFFITGTDTSVGKTVVSRALLQALASQGKTVAGYKPVAKGSKETPEGLRNKDALVLQSVSTIELPYEAVNPIALSEEESSVAHSCPINYTLISNGLANLTEKVDHVVVEGTGGWRSLMNDLRPLSEWVVQEQLPVLMVVGIQEGCINHALLTAQAIANDGLPLIGWVANRINPGLAHYAEYIDVLGKKLPAPLIGELPYLPRAEQRELGQYIRLAMLRSVLAVDRVTV
B2: YnfK T114A/I184Y (enzyme, E. coli (strain MG1655), UniProt P0A6E9 1-231, looked up)
chain: B1 chain with T114A
B3: YnfK S13E (enzyme, E. coli (strain MG1655), UniProt P0A6E9 1-231, looked up)
chain: B1 chain with S13E, Y184I
B4: YnfK T114A (enzyme, E. coli (strain MG1655), UniProt P0A6E9 1-231, looked up)
chain: B1 chain with T114A, Y184I
B5: YnfK S13E/I184Y (enzyme, E. coli (strain MG1655), UniProt P0A6E9 1-231, looked up)
chain: B1 chain with S13E
B6: FNR D154A (natural protein, E. coli (strain MG1655), UniProt P0A9E5 1-250, looked up)
chain: MIPEKRIIRRIQSGGCAIHCQDCSISQLCIPFTLNEHELDQLDNIIERKKPIQKGQTLFKAGDELKSLYAIRSGTIKSYTITEQGDEQITGFHLAGDLVGFDAIGSGHHPSFAQALETSMVCEIPFETLDDLSGKMPNLRQQMMRLMSGEIKGAQDMILLLSKKNAEERLAAFIYNLSRRFAQRGFSPREFRLTMTRGDIGNYLGLTVETISRLLGRFQKSGMLAVKGKYITIENNDALAQLAGHTRNVA

Tests used:
[1] = biological target: the molecule itself; assay: cross-linking
[2] = biological target: the molecule itself; assay: SEC

Protein	binding result [1]	stoichiometry N [2]
B1	binds	
B2	binds	
B3	binds	
B4	binds	
B5	binds	
B6		2

From publication PMC8599648 (Molecular microbiology, 2021)
